The labels stand for the following.
B1: CPEB3 Ribozyme (parent)
chain: GGGGGCCACAGCAGAAGCGUUCACGUCGCGGCCCCUGUCAGAUUCUGGUGAAUCUGCGAAUUCUGCUGU

This data set covers variants of B1. The data set can be described thus: self-cleavage, relative activity (ratio to wild type); higher = more cleavage; co-transcriptional.
Regarding GGGCGCCACAGCAGAAGCGUUCACGUCGCGGCCCCUGUCAGAUUCUGGUGAAUCUGCGAAUUGUGCUGU [G4C C63G], the self-cleavage is 0.211.

As for GGGCGCCACAGCAGAAGCGUUCACGUCGCCGCCCCUGUCAGAUUCUGGUGAAUCUGCGAAUUCUGCUGU [G4C G30C], the self-cleavage worked out at 0.0792. For GGGCGCCACAGCAGAAGCGUUCACGUAGCGGCCCCUGUCAGAUUCUGGUGAAUCUGCGAAUUCUGCUGU [G4C C27A] the value was 0.0979. On to GGGCGCCACAGCAGAAGCGUUCACGUGGCGGCCCCUGUCAGAUUCUGGUGAAUCUGCGAAUUCUGCUGU [G4C C27G], for which the self-cleavage came to 0.108. As for GGGUGCCACAGCAGAAGCGUUCCCGUCGCGGCCCCUGUCAGAUUCUGGUGAAUCUGCGAAUUCUGCUGU [G4U A23C], the figure is 0.573; as for GGGUGCCACAGCAGAAGCGUUCUCGUCGCGGCCCCUGUCAGAUUCUGGUGAAUCUGCGAAUUCUGCUGU [G4U A23U], 0.86; as for GGGUGCCACAGCAGGAGCGUUCACGUCGCGGCCCCUGUCAGAUUCUGGUGAAUCUGCGAAUUCUGCUGU [G4U A15G], 0.678. Take GGGUGCCACAGCAGCAGCGUUCACGUCGCGGCCCCUGUCAGAUUCUGGUGAAUCUGCGAAUUCUGCUGU [G4U A15C]: the self-cleavage was determined as 0.138. On to GGGCGCCACAGCAGAAGCGUUCACGUCGCGGCCCCUGUCAGAUUCUCGUGAAUCUGCGAAUUCUGCUGU [G4C G47C], for which the self-cleavage turned out to be 0.718. As for GGGCGCCACAGCAGAAGCGUUCACGUCGCGGCCCCUGUGAGAUUCUGGUGAAUCUGCGAAUUCUGCUGU [G4C C39G], the figure is 0.298; as for GGGCGCCACAGCAGAAGCGUUCACGUCGCGGCCCCUGUCAGAUUCUGGAGAAUCUGCGAAUUCUGCUGU [G4C U49A], 0.657. Regarding GGGCGCCACAGCAGAAGCGUUCACGUCGCGGCCCCUGUCAGAUUCUGGCGAAUCUGCGAAUUCUGCUGU [G4C U49C], the self-cleavage came out at 0.548. As to GGGCGCCACAGCAGAAGCGUUCACGUCGCGGCCCCUGUCAGAUUCUGGGGAAUCUGCGAAUUCUGCUGU [G4C U49G], the self-cleavage was 0.341.

On to GGGCGCCACAGCAGAAGCGUUCACGUCGCGGCCCCUGUCAGAUUCUGGUGAAGCUGCGAAUUCUGCUGU [G4C U53G], for which the self-cleavage came to 0.142. Consider GGGUGCCACAGCGGAAGCGUUCACGUCGCGGCCCCUGUCAGAUUCUGGUGAAUCUGCGAAUUCUGCUGU [G4U A13G], for which the self-cleavage turned out to be 0.649. Turning to GGGCGCCACAGCAGAAGCGUUCACGUCGCGGCCCCUGUCAGAUUCUGGUUAAUCUGCGAAUUCUGCUGU [G4C G50U], the self-cleavage was determined as 0.637. In the case of GGGCGCCACAGCAGAAGCGUUCACGUCGCGGCCCCUGUCAGAUCCUGGUGAAUCUGCGAAUUCUGCUGU [G4C U44C], the self-cleavage amounted to 0.47. With GGGCGCCACAGCAGAAGCGUUCACGUCGCGGCCCCUGUCAGAUACUGGUGAAUCUGCGAAUUCUGCUGU [G4C U44A], the self-cleavage worked out at 0.373.

Take GGGCGCCACAGCAGAAGCGUUCACGUCGCGGCCCCUGUCAGAUUCUGGUGAAUCGGCGAAUUCUGCUGU [G4C U55G]: the self-cleavage is 0.231.

For the variant GGGCGCCACAGCAGAAGCGUUCACGUCGCGGCCCCUGUCAGAUUCUGGUGAAUCUGCGAAAUCUGCUGU [G4C U61A], the self-cleavage is 0.147. Take GGGCGCCACAGCAGAAGCGUUCACGUCGCGGGCCCUGUCAGAUUCUGGUGAAUCUGCGAAUUCUGCUGU [G4C C32G]: the self-cleavage was 0.0983.

For GGGCGCCACAGCAGAAGCGUUCACGUCGCGGACCCUGUCAGAUUCUGGUGAAUCUGCGAAUUCUGCUGU [G4C C32A], the self-cleavage was 0.188. Consider GGGUGCCACAGCAGAAGCGUUCACGUCGCGGCCCCUGUCAGAUUCUGGUGAAUCUGCGGAUUCUGCUGU [G4U A59G], for which the self-cleavage is 0.442. Turning to GGGUGCCACGGCAGAAGCGUUCACGUCGCGGCCCCUGUCAGAUUCUGGUGAAUCUGCGAAUUCUGCUGU [G4U A10G], the self-cleavage was found to be 0.784. As for GGGUGCCACCGCAGAAGCGUUCACGUCGCGGCCCCUGUCAGAUUCUGGUGAAUCUGCGAAUUCUGCUGU [G4U A10C], the figure is 0.905.

Consider GGGCGCCACAGCAGAAGCGUUCACGUCGCGGCUCCUGUCAGAUUCUGGUGAAUCUGCGAAUUCUGCUGU [G4C C33U], for which the self-cleavage came out at 0.804. As to GGGCGCCACAGCAGAAGCGUUCACGUCGCGGCGCCUGUCAGAUUCUGGUGAAUCUGCGAAUUCUGCUGU [G4C C33G], the self-cleavage worked out at 0.98. For the variant GGGCGCCACAGCAGAAGCGUUCACGUCGCGGCACCUGUCAGAUUCUGGUGAAUCUGCGAAUUCUGCUGU [G4C C33A], the self-cleavage worked out at 0.989. For GGGCGCCACAGCAGAAGCGUUCACGUCGCGACCCCUGUCAGAUUCUGGUGAAUCUGCGAAUUCUGCUGU [G4C G31A], the self-cleavage came out at 0.179. GGGCGCCACAGCAGAAGCGUUCACGUCGCGUCCCCUGUCAGAUUCUGGUGAAUCUGCGAAUUCUGCUGU [G4C G31U]: the self-cleavage was found to be 0.179. For the variant GGGUGUCACAGCAGAAGCGUUCACGUCGCGGCCCCUGUCAGAUUCUGGUGAAUCUGCGAAUUCUGCUGU [G4U C6U], the self-cleavage stood at 0.31.

GGGUGCCACAGCAGAAGAGUUCACGUCGCGGCCCCUGUCAGAUUCUGGUGAAUCUGCGAAUUCUGCUGU [G4U C18A]: the self-cleavage amounted to 0.0913. As to GGGUGCCACAGCAGAAGCGUUGACGUCGCGGCCCCUGUCAGAUUCUGGUGAAUCUGCGAAUUCUGCUGU [G4U C22G], the self-cleavage came to 0.0672. Consider GGGCGCCACAGCAGAAGCGUUCACGUCGCGGCCCCUGUCAUAUUCUGGUGAAUCUGCGAAUUCUGCUGU [G4C G41U], for which the self-cleavage is 0.159.

In the case of GGGCGCCACAGCAGAAGCGUUCACGUCGCGGCCCCUGUCAGAUUCUGGUGAAUCUGCGCAUUCUGCUGU [G4C A59C], the self-cleavage was found to be 0.187. Turning to GGGCGCCACAGCAGAAGCCUUCACGUCGCGGCCCCUGUCAGAUUCUGGUGAAUCUGCGAAUUCUGCUGU [G4C G19C], the self-cleavage was 0.104. On to GGGCGCCACAGCAGAAGCUUUCACGUCGCGGCCCCUGUCAGAUUCUGGUGAAUCUGCGAAUUCUGCUGU [G4C G19U], for which the self-cleavage was 0.103. For the variant GGGCGCCACAGCAGAAGCGUUCACGUCGCGGCCCCUGUCAGAUUCUGGUGAAUCUUCGAAUUCUGCUGU [G4C G56U], the self-cleavage is 0.339.

With GGGCGCCACAGCAGAAGCGUUCACGUCGCGGCCCCUGUCAGAUUCUGGUGAAUCUGUGAAUUCUGCUGU [G4C C57U], the self-cleavage was 0.234.

The values above are taken from the RNAGym collection of RNA variant scans (doi:10.7554/elife.80360).
